Results on 16 molecules are retold here after patent US20250145729A1 (DENALI THERAPEUTICS, published 2025).

Positions count from the first letter of the chain named. Names may count otherwise.

T1: cynomolgus monkey TfR on CHO cells (cynomolgus monkey, UniProt Q5RDH6 1-760 (Pongo abelii entry))
T1 construct: also called CHO:cyTfR; cyTfR expressing cells
T1 chain: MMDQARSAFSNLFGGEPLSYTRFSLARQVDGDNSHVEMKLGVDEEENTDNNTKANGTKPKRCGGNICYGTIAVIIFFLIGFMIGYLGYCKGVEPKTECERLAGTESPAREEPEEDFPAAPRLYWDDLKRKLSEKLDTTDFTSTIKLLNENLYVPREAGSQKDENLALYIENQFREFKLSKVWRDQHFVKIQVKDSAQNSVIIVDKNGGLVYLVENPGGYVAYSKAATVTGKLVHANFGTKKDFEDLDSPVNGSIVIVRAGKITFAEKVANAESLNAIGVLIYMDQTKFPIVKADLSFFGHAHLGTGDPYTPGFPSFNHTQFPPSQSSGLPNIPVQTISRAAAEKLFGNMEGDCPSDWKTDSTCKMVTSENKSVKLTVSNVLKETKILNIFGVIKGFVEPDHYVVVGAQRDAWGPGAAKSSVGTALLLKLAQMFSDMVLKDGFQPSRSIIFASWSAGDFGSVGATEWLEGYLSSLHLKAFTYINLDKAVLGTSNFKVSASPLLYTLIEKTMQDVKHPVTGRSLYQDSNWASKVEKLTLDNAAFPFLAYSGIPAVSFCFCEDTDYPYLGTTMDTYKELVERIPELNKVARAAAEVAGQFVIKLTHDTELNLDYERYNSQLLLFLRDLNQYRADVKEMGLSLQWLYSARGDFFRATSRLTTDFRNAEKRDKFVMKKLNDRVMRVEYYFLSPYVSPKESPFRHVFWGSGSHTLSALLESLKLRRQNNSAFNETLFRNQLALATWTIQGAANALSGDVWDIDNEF

T2: human CD98hc (human, UniProt P08195 109-529)
T2 construct: also called huCD98hc; CD98 heavy chain
T2 sequence: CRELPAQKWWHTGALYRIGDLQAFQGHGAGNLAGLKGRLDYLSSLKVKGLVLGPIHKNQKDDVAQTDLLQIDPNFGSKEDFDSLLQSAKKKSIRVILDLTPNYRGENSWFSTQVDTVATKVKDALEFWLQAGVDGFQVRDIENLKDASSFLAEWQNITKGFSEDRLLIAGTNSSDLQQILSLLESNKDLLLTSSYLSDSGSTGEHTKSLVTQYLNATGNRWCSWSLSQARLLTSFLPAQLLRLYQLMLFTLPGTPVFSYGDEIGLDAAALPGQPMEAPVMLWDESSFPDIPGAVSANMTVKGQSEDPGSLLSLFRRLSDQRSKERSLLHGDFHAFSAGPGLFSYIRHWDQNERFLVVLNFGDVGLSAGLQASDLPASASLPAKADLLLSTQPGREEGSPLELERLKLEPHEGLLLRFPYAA

T3: circularly permuted cyno TfR apical domain (cynomolgus monkey, biotin on the Avi tag)
T3 construct: a linker between the two segments is not described; also called cyTfR apical domain; not shown: Avi tag and PreScission site left after Ulp1 cleavage
T3 chain: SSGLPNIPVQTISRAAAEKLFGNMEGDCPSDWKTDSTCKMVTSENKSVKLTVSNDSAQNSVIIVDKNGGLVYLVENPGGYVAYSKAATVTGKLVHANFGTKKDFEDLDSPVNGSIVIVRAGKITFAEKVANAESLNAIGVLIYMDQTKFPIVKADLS

T4: circularly permuted human TfR apical domain (human, biotin on the Avi tag)
T4 construct: a linker between the two segments is not described; also called huTfR apical domain; not shown: Avi tag and PreScission site left after Ulp1 cleavage
T4 chain: T3 chain with K39R, N45S, S47N, G69R, D108Y, S109T, K153N, D155E

T5: human CD98hc (human, UniProt P08195 109-529)
T5 construct: The construct used on the Biacore is not described; also called CD98 heavy chain; 4F2 heavy chain
T5 sequence: T2 sequence

B1: Clone 1 with LALA (Fc fusion)
chain: APEAAGGPSVFLFPPKPKDTLMISRTPEVTCVVVDVSHEDPEVKFNWYVDGVEVHNAKTKPREEQYNSTYRVVSVLTVLHQDWLNGKEYKCKVSNKALPAPIEKTISKAKGQPREPQVYTLPPSRDELTKNQVSLTCLVKGFYPSDIAVKWGSEVAPENNYKTTPPVLDSDGSFFLYSKLTVDKSRWQQGNIFACTVMHEALHNHYTLKMLSLSPGK
notes: Fc part only
B2: Clone 3 with LALA (Fc fusion)
chain: B1 chain with K150L, E154A, I192V, L208V, M210G
notes: Fc part only
B3: Clone 28: LLB2-37 bivalent, non-binding Fabs (Fc fusion)
chain: APELLGGPSVFLFPPKPKDTLMISRTPEVTCVVVDVSHEDPEVKFNWYVDGVEVHNAKTKPREEQYNSTYRVVSVLTVLHQDWLNGKEYKCKVSNKALPAPIEKTISKAKGQPREPQVYTLPPSRDELTKNQVSLTCLVKGFYPSDIAVLWNSQFHLENNYKTTPPVLDSDGSFFLYSKLTVDKSRWQQGNIFACNVYHEALHNHYTFKNLLLSPGK
notes: bivalent; effector positive
B4: Clone 26: LLB2-10-8 bivalent, non-binding Fabs (Fc fusion)
chain: B3 chain with Q154R, H156V, N191E, L212A
notes: bivalent; effector positive
B5: Clone 33: LLB2-10-8-d6 bivalent, non-binding Fabs (Fc fusion)
chain: B3 chain with Q154R, H156V, I192V, L212A
notes: bivalent; effector positive
B6: Clone 38: LLB2-10-8-d6 bivalent, non-binding Fabs, effector negative (Fc fusion)
chain: B3 chain with L4A, L5A, P99G, Q154R, H156V, I192V, L212A
B7: Clone 36: LLB2-10-8 bivalent, non-binding Fabs, effector negative (Fc fusion)
chain: B3 chain with L4A, L5A, P99G, Q154R, H156V, N191E, L212A
B8: LLB1-3-16-2 (Fc fusion)
chain: APELLGGPSVFLFPPKPKDTLMISRTPEVTCVVVDVSHEDPEVKFNWYVDGVEVHNAKTKPREEQYNSTYRVVSVLTVLHQDWLNGKEYKCKVSNKALPAPIEKTISKAKGQPREPQVYTLPPSRDELTKNQVSLTCLVKGFYPSDIAVEWRTYKPYETNYKTTPPVLDSDGSFFLYSKLTVDKSRWQQGDIFVCDVMHEALHNHFTIKKLSLSPGK
B9: LLB1-3-25-2 (Fc fusion)
chain: B8 chain
notes: a difference, if any, lies outside the printed positions
B10: LLB1-3-31-2 (Fc fusion)
chain: B8 chain with K210S
B11: LLB1-3-10-1 (Fc fusion)
chain: B8 chain with T153S, T159N, D191N, M198L, F206Y
B12: LLB1-3-16 (Fc fusion)
chain: B8 chain with M198L
notes: also called Clone 1-3-16; LLB1-1-3-16
B13: LLB1-3-14-1 (Fc fusion)
chain: B8 chain with T153S, T159N, M198L, F206Y
B14: LLB1-3 D380E (Fc fusion)
chain: B8 chain with T153S, T159N, D191N, F206Y
B15: LLB1-3-25-1 (Fc fusion)
chain: B8 chain with M198L
notes: as for B9
B16: LLB1-3-4-1 (Fc fusion)
chain: B8 chain with T159N, D191N, F206Y

The first experiment addresses T1, cynomolgus monkey TfR on CHO cells. Briefly: cell uptake at 37 C into CHO cells expressing cynomolgus monkey TfR, anti-human IgG staining, imaging (corrected spot intensity). Here is the method: (§1) HEK293T, CHO:cyTfR, and CHO cells were plated at 40,000 cells/well of 96-well plates in standard growth media (DMEM (Gibco™ 11995073)+10% FBS (VWR 89510⁻¹⁸⁸)+1×Pen/Strep (Gibco 15140122)). Approximately 24 hours later, molecules were diluted into standard growth media warmed to 37° C. Old media was removed from the cells, and the diluted molecules were added to the cells. Cells were incubated at 37° C. for 45 minutes. Cells were then washed with PBS and then fixed for 10 minutes in 4% PFA (Electron Microscopy Sciences 15714-S). Cells were washed with PBS and then blocked with 5% BSA, 0.3% TritonX100 in PBS for 30 minutes. […] Cells were washed with PBS, imaged on an Opera Phenix, and images were analyzed with Harmony software.
B1: the binding result was “binds”.
In the case of B2, the binding result is “binds”.

In the next experiment the target is T2, human CD98hc. Briefly: affinity as listed in study design table; method not given there.
For B3, the Kd was found to be 390 nM.
Molecule B4 returned an equilibrium dissociation constant (Kd) of 100 to 200 nM.

The target in another experiment is T3, circularly permuted cyno TfR apical …. Briefly: SPR. Here is the method: (§2) Biacore™ Series S CM5 sensor chips were immobilized with anti-human Fab (GE Healthcare, 28958325). Molecules were captured on each flow cell and serial 3-fold dilutions of human TfR apical domain (2, 0.67, 0.22, 0.074, 0.025, and 0 μM) and cynomologous TfR apical domain (4, 1.3, 0.44, 0.15, 0.05, and 0 μM) were injected at a flow rate of 30 μL/min using single cycle kinetics method. Each sample was analyzed with a 60-second association and a 3-minute dissociation. After each cycle, the chip was regenerated using 10 mM glycine-HCl (pH 2.1) for 30 seconds at 50 μL/min. Binding response was corrected by subtracting the RU from a reference flow cell. A 1:1 Langmuir model of simultaneous fitting of kₒₙ and koff was used for kinetics analysis using Biacore™ 8K Evaluation Software. Table 32A below summarizes the binding affinities of selected clones for human and cynomolgus TfR apical domains.
(§3) The phage library was panned against biotinylated human TfR apical domain immobilized to magnetic streptavidin beads. Four rounds of phage panning were performed and enriched clones were sequenced. Unique hits were cloned onto an anti-BACE1 hIgG1 monoclonal antibody containing the “LALA” mutations, expressed in HEK293 cells, and purified by protein A chromatography. Affinity to human and cyno TfR apical domain was measured by SPR. Clones were evaluated for TfR-specific cell binding (FIGS. 43A and 43B).
For the molecule B1, the Kd was found to be 1800 nM.
Same read-out and setting: the value for B2 was 6000 nM.

The next experiment concerns the target T4, circularly permuted human TfR apical …. Briefly: SPR. Here is the method: as §2, §3
A general note: In SPR one partner is held on a chip, and binding of the other changes the refractive index at the surface.
The molecule B1 registered a Kd of 480 nM.
On the same count and under the same terms, then B2, with 1500 nM.

In another experiment the target is T2, human CD98hc. Briefly: affinity as listed in study design table; method not given there. The source holds these as a separate data set.
On to B4, for which the Kd is 100 to 200 nM.
Still for that read-out and setting: the value for B5 was 550 nM; that for B6 was 550 nM; that for B7 was 100 to 200 nM.

The target in a further experiment is T6, human TfR on HEK293T cells (human, UniProt P02786 1-760).
T6 construct: also called huTfR expressing cells; human TfR-positive cells
The experiment can be described thus: cell uptake at 37 C into HEK293T human TfR positive cells, anti-human IgG staining, imaging (corrected spot intensity). The method, then: as §1
For B1, the binding result is recorded as “binds”.
For B2, the binding result is listed as “binds”.

In a further experiment the target is T5, human CD98hc. Briefly: SPR (Biacore); format not stated. The method, then: A second round of affinity maturation using phage display was performed to increase the affinity of the LLB1 family to CD98hc (Table 11). The backbone of the library was the clone LLB1-3. Library LLB1-AM3 expands the library positions from the original clone using NHK or ARY. Library LLB1-AM4 expands the libraries and includes a mixture of residues that were found previously at those positions in the LLB1 family. The library was assembled using Kunkel mutagenesis and screened to human CD98hc. […] The format was anti-BACE1 Fabs having full effector function and in a bivalent format (i.e., no knob and hole mutations). Cell binding of the clones was also tested in HeLa cells for huCD98hc binding, CHO:cyCD98hc cells for cyno binding, and CHO cells as a negative control.
B8 gave a Kd of 175 nM.
For the molecule B9, binding was put at a Kd of 160 nM.
In turn, B10 yielded a Kd of 1200 nM.
The molecule B11 had an equilibrium dissociation constant (Kd) of 470 nM.
For B12, the Kd stood at 32 nM.
For B13, the Kd is 330 nM.
In the case of B14, binding was characterised by a dissociation constant (Kd) of 1000 nM.
Take B15: the Kd is 42 nM.
With B16, the Kd stood at 880 nM.

In general, Kd refers to the equilibrium constant for the complex coming apart.
